Measured values from the supplement of paper PMC10724198.
± gives the standard deviation of the averaged measurements.

test system: Saccharomyces cerevisiae; experiment: protein stability index of tFT-peptide fusion (C-terminal peptide) (PSI (0-1 scale)); higher = more stable (slower turnover); details: genetic background: wild type; temperature: 30 C
Protocol: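 Multiplexed protein stability (MPS) profiling in S. cerevisiae. Random 12-aa peptides (tFT-X12 library) are fused to the C-terminus of a sfGFP-mCherry tandem fluorescent timer, after mCherry and a GGGS linker. Cells are FACS-sorted into 8 mCherry/sfGFP bins and deep-sequenced. The protein stability index (PSI) is the read-weighted bin average, scaled from 0 (unstable) to 1 (stable). Only peptides with >10 reads are reported; cells were grown at 30 °C in SC-His with glucose.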
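Note: PSI is a weighted mean of sequencing reads over stability bins, variants kept only with over 10 reads, mCherry proximal and sfGFP distal, peptide attached via GGGS linker.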

Row | Sequence | protein stability index
1 | GGRTEYILQLKK | 0.686 ± 0.021
2 | GLCRGHMSTMVD | 0.641 ± 0.064
3 | LETVPVPPPPSA | 0.747 ± 0.057
4 | VGWQGRWWVWGG | 0.5679 ± 0.005
5 | WAAWGGGEAWGV | 0.698 ± 0.047
6 | VRFPVEPYEAMF | 0.71 ± 0.0097
7 | GMIRDKEVVGGG | 0.651 ± 0.11
8 | PPPPPPPPRRPP | 0.595 ± 0.047
9 | DILACAPCRRGP | 0.704 ± 0.022
10 | PPPTHPTSTSSI | 0.699 ± 0.02
11 | KKLNKNKSKINR | 0.683 ± 0.01
12 | PPSPPPAFPPPA | 0.64 ± 0.059
13 | EGWRWEGGVWEG | 0.676 ± 0.022
14 | TWGRPGGDHPRE | 0.708 ± 0.0096
15 | PRLLPFPPPLDH | 0.735 ± 0.083
16 | QVLFTPLLNVTK | 0.754 ± 0.05
17 | VLLQDLSYLIGQ | 0.707 ± 0.065
18 | RRDIPLSPVAFS | 0.702 ± 0.031
19 | VWSWVDSFCRGG | 0.744 ± 0.042
20 | ATMGRKSLRDRF | 0.679 ± 0.012
21 | LVFCPCQSVVSL | 0.59 ± 0.043
22 | SRRLSLSSLAFP | 0.723 ± 0.0074
23 | INSSPRSSTLLL | 0.686 ± 0.034
24 | LLFSNRKVGQQF | 0.708 ± 0.011
25 | PPPPSPPLTRSL | 0.783 ± 0.08

Row | Sequence | protein stability index
26 | LMDIPGNPRSLY | 0.604 ± 0.072
27 | SPPPPSPTCPHL | 0.652 ± 0.035
28 | PCPLPVLDASQF | 0.7158 ± 0.0053
29 | PPSRLLFPSPPA | 0.683 ± 0.055
30 | RGCAPDRIPAPV | 0.645 ± 0.023
31 | HALSVDPAFKQS | 0.66 ± 0.05
32 | GGFGGAWRGWAP | 0.692 ± 0.016
33 | WWGGGVRGGMGG | 0.7578 ± 0.002
34 | SSRRQSSRPPHS | 0.648 ± 0.025
35 | LPRSSRFPSPSR | 0.765 ± 0.012
36 | KVLGRPVGMAYI | 0.666 ± 0.034
37 | GLPRFFKNPPVV | 0.6445 ± 0.0043
38 | FRGGLLSLSAWV | 0.699 ± 0.02
39 | AAKGSVRLFHVF | 0.561 ± 0.017
40 | LGVWVGGRGVRG | 0.747 ± 0.037
41 | GGGRAEPLEPGV | 0.648 ± 0.07
42 | IYNDPYYLIKAR | 0.644 ± 0.018
43 | AFSRCITVRVVH | 0.498 ± 0.032
44 | KNKQQKKNKQKR | 0.643 ± 0.045
45 | GGCIGAKSVGGG | 0.652 ± 0.027
46 | MERAGTAEGGGA | 0.655 ± 0.008
47 | VMKAVNKTKRNV | 0.664 ± 0.041
48 | VECGVAGSLDLA | 0.713 ± 0.014
49 | RKEESKKEKNKI | 0.65 ± 0.11
50 | RSETGYGTSWGA | 0.627 ± 0.026

Row | Sequence | protein stability index
51 | LEWVRPCDLFPC | 0.7198 ± 0.005
52 | LLFPALPPPPVR | 0.674 ± 0.028
53 | PRPRQPPPPPPP | 0.689 ± 0.0076
54 | STNNSGRPMSFL | 0.664 ± 0.045
55 | TKQIKKNKHKRA | 0.727 ± 0.12
56 | KKKIKKKKEKNT | 0.664 ± 0.032
57 | KKKKKKTTPKTN | 0.745 ± 0.038
58 | KINRTKTAPITR | 0.724 ± 0.044
59 | GLASLTVGAASV | 0.671 ± 0.011
60 | DSHEEGVSVAPA | 0.749 ± 0.034
61 | PLPPPPVSLPAP | 0.617 ± 0.064
62 | VGVWWWWCFGSW | 0.595 ± 0.069
63 | SHGEDTACNWGL | 0.714 ± 0.018
64 | RLWFPSARLRFT | 0.678 ± 0.06
65 | PLPKARRHHSPA | 0.653 ± 0.033
66 | WGSISVEGRVAG | 0.715 ± 0.015
67 | PRLVHGFPRFHP | 0.669 ± 0.033
68 | GGGRRWPGGSGG | 0.775 ± 0.075
69 | PIFPFSFFLPLI | 0.605 ± 0.011
70 | VFRFAPILHSHR | 0.585 ± 0.019
71 | FCLDLLVGLVFL | 0.546 ± 0.035
72 | VVCSTRRPSLGS | 0.681 ± 0.03
73 | EFPPPPSSRSCA | 0.712 ± 0.013
74 | TLSYSPPCSPRH | 0.742 ± 0.03
75 | GQGSSRKSTSVK | 0.7114 ± 0.0041

Row | Sequence | protein stability index
76 | QSAPPPLPPRRR | 0.69 ± 0.03
77 | SAGLLFFSFPPL | 0.7873 ± 0.0067
78 | GLGLASWGDLEL | 0.739 ± 0.039
79 | HTPRLRRMRDYH | 0.658 ± 0.087
80 | QIPEYGGQGVNV | 0.6935 ± 0.0047
81 | ATGGGSFKRRVS | 0.53 ± 0.014
82 | PGGRPAAGALRV | 0.685 ± 0.065
83 | PPSPSPPPYHFP | 0.676 ± 0.023
84 | GADGARGVPGAG | 0.662 ± 0.018
85 | PAPCAPLLTHRP | 0.6614 ± 0.0025
86 | LTGSPDSNPNSV | 0.68 ± 0.084
87 | HRPGYLTSSASD | 0.65 ± 0.062
88 | PSPSGRGLAIAP | 0.688 ± 0.013
89 | GVAYSIVKKKKK | 0.684 ± 0.036
90 | SLSPPLLPPSPP | 0.643 ± 0.018
91 | GGGWGGEAVRVW | 0.65 ± 0.055
92 | SIHITGTLSRTA | 0.751 ± 0.065
93 | GAPSHVTPLPQI | 0.686 ± 0.047
94 | DRVGGDWMERGG | 0.719 ± 0.036
95 | GSPPHTLPLHGR | 0.67 ± 0.03
96 | PSSHHGNQTTRK | 0.826 ± 0.14
97 | PFHPSPLPAPHF | 0.638 ± 0.036
98 | PPRPLLPTPSPL | 0.7 ± 0.056
99 | GSEPCPRPCGPG | 0.692 ± 0.048
100 | FCPPLAFPPPLS | 0.743 ± 0.028

Row | Sequence | protein stability index
101 | PFSSVATFLSRL | 0.854 ± 0.17
102 | SGIKGENKIKEK | 0.681 ± 0.0097
103 | LQTLSTLLPSLL | 0.689 ± 0.023
104 | VSRGGWLKWDEG | 0.66 ± 0.028
105 | PSHAAPVPAPQP | 0.628 ± 0.079
106 | VVWGAWGGWGCW | 0.726 ± 0.056
107 | SLFRYPLALPFP | 0.711 ± 0.012
108 | LTPRPLPRLSPP | 0.705 ± 0.028
109 | SSGISEGFERGG | 0.581 ± 0.014
110 | KNSKNIRNKTNE | 0.711 ± 0.017
111 | RMGAEDTGCRRP | 0.657 ± 0.062
112 | VVSEQLDRGMRF | 0.694 ± 0.039
113 | RPPIGTLCSINF | 0.614 ± 0.13
114 | PGLCGGRRCVAL | 0.638 ± 0.073
115 | FSFFQFSASFFL | 0.699 ± 0.039
116 | GGLRWVLGAQAV | 0.707 ± 0.063
117 | SRGWLHVVGGQV | 0.6843 ± 0.004
118 | DRASLAGPRSLP | 0.692 ± 0.032
119 | DYHPPRRMKEAG | 0.625 ± 0.028
120 | RNTRAPTRNVPE | 0.674 ± 0.028
121 | GIGLYMWRNSKW | 0.796 ± 0.04
122 | SEKILCTGECAA | 0.619 ± 0.07
123 | GGGWDWWFGVPG | 0.792 ± 0.13
124 | EGYGPSVRYRRS | 0.639 ± 0.084
125 | WSIGGKSFVGIA | 0.676 ± 0.031

Row | Sequence | protein stability index
126 | ACGTFSDSMSQL | 0.691 ± 0.11
127 | GSYRSSPFKDPK | 0.686 ± 0.037
128 | KEYRTKNNKGRK | 0.654 ± 0.11
129 | DLEDPAETPNIF | 0.72 ± 0.033
130 | GGGGGEAGVIGR | 0.892 ± 0.15
131 | LGGGGGGGACGE | 0.655 ± 0.022
132 | TVKAGESILEQR | 0.716 ± 0.013
133 | LGAGLIGCALVE | 0.645 ± 0.036
134 | SLGRVSRLSFQH | 0.784 ± 0.041
135 | KSQKKKKKNKNF | 0.57 ± 0.044
136 | PSPPPAVLPPPP | 0.693 ± 0.039
137 | VQSSLFGLGVQC | 0.566 ± 0.033
138 | TRPKINKGKGTG | 0.6677 ± 0.0014
139 | PPRTPFSLPPPA | 0.73 ± 0.054
140 | RASTRGIMISKS | 0.706 ± 0.034
141 | YFNNVFQVAGGF | 0.639 ± 0.025
142 | GREREKGGKRIE | 0.629 ± 0.047
143 | FTSLCLLFLFSL | 0.616 ± 0.085
144 | DGLQNACVFMSG | 0.6906 ± 0.0025
145 | PSPPLPPPPSPY | 0.72 ± 0.1
146 | GLWEVVEITRRE | 0.684 ± 0.049
147 | PPLSLRPDLPVF | 0.649 ± 0.0098
148 | LAAVCFYPFCCF | 0.641 ± 0.017
149 | PHLRPPPPPPPQ | 0.6892 ± 0.0049
150 | GGVAADGGGGRG | 0.675 ± 0.043

Row | Sequence | protein stability index
151 | GGGARWGWGGRM | 0.648 ± 0.033
152 | RDSERTSGAMLS | 0.689 ± 0.031
153 | IRPFALSPSSLP | 0.658 ± 0.12
154 | PPAPTPLSPLAS | 0.693 ± 0.051
155 | PSPSPPPPLSPP | 0.698 ± 0.045
156 | GEGNRVPNPSRP | 0.669 ± 0.022
157 | HATPPPLPSPPL | 0.71976 ± 0.0003
158 | LSLYGLLLPTFE | 0.714 ± 0.037
159 | RQNPRLPPPFQP | 0.731 ± 0.052
160 | GVRHPRLMFSRS | 0.687 ± 0.02
161 | GGGGGWVRWASG | 0.689 ± 0.064
162 | PPSLPPLPPSPA | 0.656 ± 0.085
163 | VPPPLPSPPSHP | 0.761 ± 0.038
164 | PPPSCPPPPSRS | 0.7754 ± 0.0068
165 | PPRVFGFFPFPP | 0.774 ± 0.079
166 | GIEAKPLEGKTQ | 0.7026 ± 0.0018
167 | PPPLLPHLLLPP | 0.611 ± 0.12
168 | PISLSFPPPLHP | 0.65 ± 0.017
169 | VPFPHTHPLLTP | 0.757 ± 0.054
170 | GRVRLGMKETLS | 0.713 ± 0.016
171 | PLLPLLPSPASP | 0.674 ± 0.0098
172 | KRGNGIEGRVGG | 0.685 ± 0.011
173 | KIERSKKKRRKG | 0.66 ± 0.079
174 | WLESHVSRGLTT | 0.64 ± 0.021
175 | ENERRESLTMVR | 0.786 ± 0.1

Row | Sequence | protein stability index
176 | RKKINKRLCLGN | 0.692 ± 0.033
177 | LHPPAPRSPPPR | 0.639 ± 0.041
178 | ECGLRAAKPVWI | 0.702 ± 0.063
179 | GYNTSMHVQYQT | 0.764 ± 0.02
180 | CSFFNSFPVFWL | 0.7 ± 0.014
181 | SPPPRPLKLFPP | 0.599 ± 0.025
182 | LATGLVIETLWE | 0.753 ± 0.042
183 | WTCMNRRMREED | 0.739 ± 0.072
184 | PLPPPPPPPSSP | 0.726 ± 0.011
185 | GQSSVGCYNYRR | 0.676 ± 0.036
186 | PRHCYIPLPLLP | 0.661 ± 0.021
187 | SDSIVTGCLKYP | 0.696 ± 0.014
188 | GTLARFLTHFNP | 0.666 ± 0.048
189 | PNFYPLWLNLPL | 0.813 ± 0.086
190 | GMGWGTVGDING | 0.709 ± 0.024
191 | VGDGQGGGGQGG | 0.661 ± 0.022
192 | FGSPVGSAGSCF | 0.647 ± 0.095
193 | PPLCTTPTPRRV | 0.735 ± 0.041
194 | ALAQQSPLPTRP | 0.703 ± 0.011
195 | RKRPTQAMIFNI | 0.5568 ± 0.0013
196 | TVVYPFHSGGFA | 0.694 ± 0.024
